In patent publication US20140314668A1, “TECHNETIUM-99M LABELED COMPLEX OF GOLD NANOPARTICLE-GOLD BINDING PEPTIDES, AND METHOD OF MAKING AND USING THE SAME” (Korea Atomic Energy Research Institute, priority 2013, published 2014):

Test: NaCl-induced aggregation method (adsorption of GBP1 on the surface of GNPs, UV-Vis)
Format: physicochemical
Description: In order to investigate a minimum concentration of GBP1 required for complete adsorption on the surface of gold nanoparticles (GNPs), since it is known that salts such as NaCl induce aggregation of gold and other nanoparitices (H.M.L. M. Y. Lin et al, Nature, 339, 1989, 360-362), an NaCl-induced aggregation method was used, and concentration of GBP1 adsorbed on the surface of GNPs was analyzed.
A variety of concentrations of GBP1 were added to 0.5 mL of GNP solution (O.D.=1.0, D=10 nm) to form a mixture, followed by standing for 10 minutes at room temperature. Next, 10% NaCl solution was added to the mixture so as to have a final concentration of 0.5% in order to induce aggregation of GNPs, followed by standing for 10 minutes at room temperature. Subsequently, in order to protect additional aggregation, 0.1% BSA was added to the resultant, followed by standing for 10 minutes at room temperature. Finally, aggregation degree of GNPs was measured in a wavelength range of 220 to 700 nm by UV-Vis spectrophotometer, and the measurement results are shown in FIG. 1.

GBP1: synthetic gold binding peptide 1, amino acid sequence (SEQ ID No. 1): MHGKTQATSGTIQS (GBP1)
GBP1 concentration at which aggregation of GNPs is prevented (0.5 mL GNP solution (O.D.=1.0, D=10 nm), 0.5% NaCl final, room temperature): more than 10 μg/ml | main surface plasmon band of the GNP solution (red-shifted) (GBP1 concentration of 10 μg/ml or less, in the presence of NaCl): 525 nm
